Paper PMC10173331
Where two headings read alike, the source gives them in different places.

Tests used:
[1] = target: T1, clusterin (apolipoprotein J) (UniProt P10909 23-449); assay: AuNP colorimetric aggregation assay
[2] = target: T1, clusterin (apolipoprotein J); assay: AuNP colorimetric aggregation assay; remark: listed apart in the source

T1 sequence (P10909 23-449): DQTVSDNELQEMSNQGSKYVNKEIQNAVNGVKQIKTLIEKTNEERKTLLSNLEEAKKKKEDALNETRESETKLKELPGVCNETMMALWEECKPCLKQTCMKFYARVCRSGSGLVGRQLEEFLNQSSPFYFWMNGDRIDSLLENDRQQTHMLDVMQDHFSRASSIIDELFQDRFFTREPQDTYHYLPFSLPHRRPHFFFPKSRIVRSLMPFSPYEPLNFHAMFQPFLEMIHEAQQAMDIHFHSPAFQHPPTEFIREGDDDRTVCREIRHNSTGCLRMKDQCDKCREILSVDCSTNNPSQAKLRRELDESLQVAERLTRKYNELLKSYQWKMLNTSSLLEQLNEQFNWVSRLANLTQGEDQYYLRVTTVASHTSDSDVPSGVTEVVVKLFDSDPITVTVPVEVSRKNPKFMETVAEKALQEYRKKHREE

| Binder | binding result [1] | binding result [2] |
| --- | --- | --- |
| clusterin 1 (ssDNA) DNA: CTCCTCTGACTGTAACCACGTTAGGCGAGAACATGTCAGTACGTCGACGTTCTACTTGCTGCATAGGTAGTCCAGAAGCC | binds |  |
| CTCCTCTGACTGTAACCACGTTAGGCGAGAACATGTCAGT (ssDNA) [clusterin 2] |  | binds |
